Results published in PMC9270392, “An ancestral function of strigolactones as symbiotic rhizosphere signals” (Nature Communications, 2022).

Substrate: CC1=CC(O/C=C(C)\C=C\C2=C(C)CCCC2(C)C)OC1=O
Assay: LC-MS/MS of BSB formed by yeast microsomes, Michaelis-Menten fit
Format: biochemical, Marchantia paleacea
Settings: rac-CL 0.25 to 33 μM, NADPH 500 μM, 28 °C, 10 min, microsomes of WAT11 yeast, overall two-step conversion CL to BSB via CLA

B1: MpaMAX1 (Marchantia paleacea subsp. diptera) (protein)
chain: MITSMEGWTGVGALGSLVFMVVIMVYYFYPTWKVRHIPVPPYTWFLGHIPLLTKHQALCWTMLAKDYGPMYRFHVGRQPMVMVTDAELCRQVGLKLFKQVPNRSNPAMIEGSSVLKKALFFSRDEQWSGMKSILQPLFHSDKMNNYTPIMTQIVDELLERLRSVKEGEDVNISRLFQRLTLDVIGEVAFGIKFGLVLETPGPDEWLVQTTVKSIDALRMDAGAGVPLSTIVGTFFPILQKPFRSLLRMIPGTPEWVADGSDHALKLRLRQIQQEREELMRRNGSVSRVDSLSLLLNSSKLNKQNGKLLTQDYIGALTYELTLVGSETSSVTLSMLTYLLALHPECERKMLAEIDAFGPRDLPITTEDLETKFPYVDMVIKETMRKHTTTPVVAREASEDIELGGYHLPKGTWVWLVLEALQMNPKDFPEPEEFRPERFDENCDEAKTRHPYAFLPFGVGPRSCLGKRFAAQEVKLTVVRLYQNFTFTLSPLTKVPLETQFGIVVRPKHGVCVRVHPRWTRL
notes: cDNA in pYeDP60, expressed in yeast WAT11 (Saccharomyces cerevisiae); microsomal fraction
- Km: 4.78 ± 1.22 µM
